Experimental data: patent US20230295327A1 (published 2023)
Where two headings read alike, the source gives them in different places.

B1: T2.01 (anti-hu CD20/hu IL-12, hu IgG1) (bispecific antibody)
heavy: not shown
light: QIVLSQSPAILSASPGEKVTMTCRASSSVSYIHWFQQKPGSSPKPWIYATSNLASGVPVRFSGSGSGTSYSLTISRVEAEDAATYYCQQWTSNPPTFGGGTKLEIKRTVAAPSVFIFPPSDEQLKSGTASVVCLLNNFYPREAKVQWKVDNALQSGNSQESVTEQDSKDSTYSLSSTLTLSKADYEKHKVYACEVTHQGLSSPVTKSFNRGEC
chain: not shown
B2: T2.02 (anti-hu CD20/hu IL-12 mut1, hu IgG1) (bispecific antibody)
heavy: not shown
light: B1 light
chain: not shown
B3: T2.11 (anti-hu CD20/anti-hu CD20-hu IL-12 mut2, hu IgG1 (2 + 1)) (antibody)
heavy 1: not shown
heavy 2: not shown
light: B1 light
B4: T2.04 (anti-hu CD20/hu IL-12, hu IgG1 (2 + 1)) (bispecific antibody)
heavy: not shown
light: QIVLSQSPAILSASPGEKVTMTCRASSSVSYIHWFQQKPGSSPKPWIYATSNLASGVPVRFSGSGSGTSYSLTISRVEAEDAATYYCQQWTSNPPTFGGGTKLEIKGGGGSGGGGSGGGGSQIVLSQSPAILSASPGEKVTMTCRASSSVSYIHWFQQKPGSSPKPWIYATSNLASGVPVRFSGSGSGTSYSLTISRVEAEDAATYYCQQWTSNPPTFGGGTKLEIKRTVAAPSVFIFPPSDEQLKSGTASVVCLLNNFYPREAKVQWKVDNALQSGNSQESVTEQDSKDSTYSLSSTLTLSKADYEKHKVYACEVTHQGLSSPVTKSFNRGEC
chain: not shown
B5: T2.07 (anti-hu CD20/hu IL-12 mut2, hu IgG1 (2 + 1, HC scFv)) (bispecific antibody)
heavy: not shown
light: B1 light
chain: not shown
B6: T2.10 (anti-hu CD20/anti-hu CD20-hu IL-12, hu IgG1 (2 + 1)) (antibody)
heavy 1: not shown
heavy 2: not shown
light: B1 light
B7: T2.09 (anti-hu CD20/hu IL-12 mut2, hu IgG1 (2 + 1, LC scFv)) (bispecific antibody)
heavy: not shown
light: QIVLSQSPAILSASPGEKVTMTCRASSSVSYIHWFQQKPGSSPKPWIYATSNLASGVPVRFSGSGSGTSYSLTISRVEAEDAATYYCQQWTSNPPTFGGGTKLEIKRTVAAPSVFIFPPSDEQLKSGTASVVCLLNNFYPREAKVQWKVDNALQSGNSQESVTEQDSKDSTYSLSSTLTLSKADYEKHKVYACEVTHQGLSSPVTKSFNRGECGGGGSGGGGSGGGGSQVQLQQPGAELVKPGASVKMSCKASGYTFTSYNMHWVKQTPGRGLEWIGAIYPGNGDTSYNQKFKGKATLTADKSSSTAYMQLSSLTSEDSAVYYCARSTYYGGDWYFNVWGAGTTVTVSAGGGGSGGGGSGGGGSGGGGSQIVLSQSPAILSASPGEKVTMTCRASSSVSYIHWFQQKPGSSPKPWIYATSNLASGVPVRFSGSGSGTSYSLTISRVEAEDAATYYCQQWTSNPPTFGGGTKLEIK
chain: not shown
B8: T2.06 (anti-hu CD20/hu IL-12, hu IgG1 (2 + 1, HC scFv)) (bispecific antibody)
heavy: not shown
light: B1 light
chain: not shown
B9: T2.08 (anti-hu CD20/hu IL-12, hu IgG1 (2 + 1, LC scFv)) (bispecific antibody)
heavy: not shown
light: B7 light
chain: not shown
B10: T2.05 (anti-hu CD20/hu IL-12 mut2, hu IgG1 (2 + 1)) (bispecific antibody)
heavy: not shown
light: B4 light
chain: not shown
B11: Rituximab (anti-hu CD20 monoclonal antibody) (antibody, V domains shown)
VH: QVQLQQPGAELVKPGASVKMSCKASGYTFTSYNMHWVKQTPGRGLEWIGAIYPGNGDTSYNQKFKGKATLTADKSSSTAYMQLSSLTSEDSAVYYCARSTYYGGDWYFNVWGAGTTVTVSA
VL: QIVLSQSPAILSASPGEKVTMTCRASSSVSYIHWFQQKPGSSPKPWIYATSNLASGVPVRFSGSGSGTSYSLTISRVEAEDAATYYCQQWTSNPPTFGGGTKLEIKR

What was measured:
[1] = target: T1, IL-12 receptor beta 1-biotin (IL-12Rβ1-Biotin; Acrobiosystems) (human, UniProt P42701 24-545, biotin (site not stated)); assay: ELISA
recombinant human CD20 [2] = target: T2, recombinant human CD20 (human, UniProt P11836 1-297); assay: SPR
T2 chain: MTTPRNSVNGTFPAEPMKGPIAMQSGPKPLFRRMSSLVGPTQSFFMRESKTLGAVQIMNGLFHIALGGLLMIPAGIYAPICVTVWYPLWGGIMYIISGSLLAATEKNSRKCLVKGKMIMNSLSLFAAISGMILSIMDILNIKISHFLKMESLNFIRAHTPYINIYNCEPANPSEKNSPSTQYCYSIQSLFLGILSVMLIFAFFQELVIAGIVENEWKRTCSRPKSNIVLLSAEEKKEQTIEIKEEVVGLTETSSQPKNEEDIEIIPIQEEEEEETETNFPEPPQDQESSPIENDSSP

recombinant human CD20 [3] = target: T2, recombinant human CD20; assay: SPR
recombinant human CD20 [4] = target: T2, recombinant human CD20; assay: SPR
[5] = target: T1, IL-12 receptor beta 1-biotin …; assay: ELISA; control, flat curve

| Binder | Kd (recombinant human CD20 [3]) [nM] | Kd (recombinant human CD20 [4]) [nM] | other results |
| --- | --- | --- | --- |
| B1 | – | – | EC50 [1]: 16.2 nM; Kd (recombinant human CD20 [2]): 5.84 nM |
| B2 | – | – | EC50 [1]: 17.6 nM; Kd (recombinant human CD20 [2]): 7.2 nM |
| B3 | 1390 | – | – |
| B4 | – | 7.58 | – |
| B5 | – | 2.84 | – |
| B6 | 16.6 | – | – |
| B7 | 3.67 | – | – |
| B8 | – | 11.5 | – |
| B9 | 2.08 | – | – |
| B10 | – | 2.88 | – |
| B11 | – | – | EC50 [5]: 25.1 nM |
